Experimental data as given in patent US20210163538A1 (published 2021).
*1 amine or outer side, *2 acyl side, *3 side chain or, on linkers, in order; H or OH if unused. Bridges are numbered along the chain shown (N, C = ends). [ ]: non-standard residue; d: D form. AlexaFluor 647 = AlexaFluor 647 dye coupled as NHS ester to the Lys amine; Tyr(Me) = O-methyltyrosine, COc1ccc(C[C@H](N[*:1])C(=O)[*:2])cc1; Trp(5-F) = N[C@@H](Cc1c[nH]c2ccc(F)cc12)C(=O)O; mXylylene = c1cc(C[*:1])cc(C[*:2])c1; αMeP = C[C@@]1(C(=O)O)CCCN1; Mpa = O=C(O)CCS

B1: Reagent A (peptide)
peptide: [Mpa]K(AlexaFluor 647)G[Trp(5-F)][Trp(5-F)]DHY[αMeP]C-NH2
modifications: linker N-10 via mXylylene
notes: also called AlexaFluor647 (AF) tagged cyclic peptide; AF cyclic peptide
B2: Reagent B (peptide)
peptide: [Mpa]K(AlexaFluor 647)[dA][Trp(5-F)][Trp(5-F)]DH[Tyr(Me)][αMeP]C-NH2
modifications: linker N-10 via mXylylene
notes: as for B1

Experiments:
biotinylated PCSK9 [1] = target: T1, biotinylated PCSK9 (UniProt Q8NBP7 31-692, limits assumed, biotinylated (site not stated)); assay: method not stated; KD of the labelled probe of the Alexa FRET Standard assay
T1 construct: also called europium-labeled PCSK9
T1 sequence (Q8NBP7 31-692 limits assumed): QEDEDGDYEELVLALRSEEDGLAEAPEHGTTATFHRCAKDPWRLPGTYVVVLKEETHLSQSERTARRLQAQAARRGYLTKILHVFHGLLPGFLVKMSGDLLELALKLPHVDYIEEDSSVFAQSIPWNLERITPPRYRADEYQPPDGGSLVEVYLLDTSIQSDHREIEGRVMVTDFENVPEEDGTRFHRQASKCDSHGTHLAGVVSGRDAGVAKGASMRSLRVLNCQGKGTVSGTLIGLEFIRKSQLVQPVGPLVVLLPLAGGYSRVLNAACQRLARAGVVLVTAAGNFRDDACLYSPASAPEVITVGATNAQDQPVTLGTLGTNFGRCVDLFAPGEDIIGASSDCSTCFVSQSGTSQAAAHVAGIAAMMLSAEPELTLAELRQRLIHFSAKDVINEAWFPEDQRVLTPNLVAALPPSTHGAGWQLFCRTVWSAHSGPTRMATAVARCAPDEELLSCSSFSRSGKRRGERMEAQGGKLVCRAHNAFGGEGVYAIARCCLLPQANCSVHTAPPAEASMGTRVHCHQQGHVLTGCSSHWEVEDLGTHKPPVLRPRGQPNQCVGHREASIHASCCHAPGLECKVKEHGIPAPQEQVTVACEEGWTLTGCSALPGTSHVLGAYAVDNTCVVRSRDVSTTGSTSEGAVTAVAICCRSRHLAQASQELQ

biotinylated PCSK9 [2] = target: T1, biotinylated PCSK9; assay: method not stated; KD of the labelled probe of the Alexa FRET Plus assay

Binder	Kd (biotinylated PCSK9 [1])	Kd (biotinylated PCSK9 [2])
B1	83 nM	
B2		35 nM
